Experiments:
Human PSMA antigen [1] = biological target: T1, Human PSMA antigen (human, UniProt Q04609 44-750, limits assumed); experiment: SPR (Biacore), 37 C, antibody over immobilized PSMA
T1 construct: This is the antigen immobilised on the Biacore chip; also called FOLH1_HUMAN
Excerpt: The calculated kinetic parameters derived from SPR are shown in FIG. 4C, showing distinct differences in affinities when compared to the chimeric and the original mouse antibody J591. Increased affinity of anti-PSMA antibodies should translate into higher potency, while lower affinity anti-PSMA antibodies into lower toxicity. This affinity modulation is achieved without altering the CDR sequences. Based on the binding kinetics, the clone having combination of J591_VL-1 and J591_VH-3, which has near identical binding kinetics to those of J591 chimeric antibody, was chosen to build the PSMA-BsAb (BC244) of the present technology. The amino acid sequences of the light chain (SEQ ID NO: 11) and the heavy chain (SEQ ID NO: 12) of the select clone are shown in FIG. 12. Mutation N297A was used to remove glycosylation, and K322A to minimize complement activation.

Human PSMA antigen [2] = biological target: T1, Human PSMA antigen; experiment: SPR Biacore, immobilised human PSMA, 37 C, 1:1 fit
Procedure: (§1) PSMA-BsAb Biacore Settings. Human PSMA antigen was immobilized directly on Fc2 at 3000 RU, and cynomolgus PSMA (ACRO) on Fc4 at 3000 RU (Blank on Fc1 and Fc3 as controls). Abs were run through the system at 37° C., at concentrations of 250 and 500 nM, with association time 1 min, dissociation time 15 min. Regeneration was performed at 30 mM NaOH. All data were fitted with 1:1 model.

cynomolgus PSMA (ACRO) = biological target: T2, cynomolgus PSMA (ACRO) (cynomolgus, UniProt A0A2K5VNZ0 44-750); experiment: SPR Biacore, immobilised cynomolgus PSMA, 37 C, 1:1 fit
T2 construct: Immobilised on the Biacore chip
Procedure: as §1

T1 sequence (Q04609 44-750 limits assumed): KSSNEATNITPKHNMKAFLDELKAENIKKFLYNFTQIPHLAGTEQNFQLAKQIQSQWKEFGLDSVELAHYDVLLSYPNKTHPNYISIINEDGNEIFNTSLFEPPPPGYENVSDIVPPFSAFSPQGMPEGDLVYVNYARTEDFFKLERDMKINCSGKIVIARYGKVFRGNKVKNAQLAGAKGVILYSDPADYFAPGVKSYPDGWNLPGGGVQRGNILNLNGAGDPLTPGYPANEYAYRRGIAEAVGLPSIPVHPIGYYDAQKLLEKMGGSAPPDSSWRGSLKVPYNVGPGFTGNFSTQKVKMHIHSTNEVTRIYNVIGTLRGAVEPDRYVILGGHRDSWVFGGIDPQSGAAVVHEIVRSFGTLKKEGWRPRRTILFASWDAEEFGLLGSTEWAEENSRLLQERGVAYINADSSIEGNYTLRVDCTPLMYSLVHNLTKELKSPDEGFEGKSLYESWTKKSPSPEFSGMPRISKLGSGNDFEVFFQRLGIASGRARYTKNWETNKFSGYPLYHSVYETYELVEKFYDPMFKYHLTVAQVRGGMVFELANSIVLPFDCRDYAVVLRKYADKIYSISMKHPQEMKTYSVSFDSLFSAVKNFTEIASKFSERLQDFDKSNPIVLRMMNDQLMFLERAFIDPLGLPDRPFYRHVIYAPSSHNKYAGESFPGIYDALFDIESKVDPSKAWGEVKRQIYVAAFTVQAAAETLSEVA

B1: huJ591 (J591_VH-2 + J591_VL-1) (antibody, human IgG1, V domains shown)
VH: QVQLVQSGAEVKKPGASVKVSCKASGYTFTEYTMHWVRQAPGQGLEWMGNINPNNGGTTYNQKFQGRVTMTVDKSISTAYMELSRLRSDDTAVYYCAAGWNFDYWGQGTLVTVSS
VL: DIQLTQSPSFLSASVGDRVTITCRASQDVGTALDWYQQKPGKAPKLLIYWASTLHSGVPSRFSGSGSGTEFTLTISSLQPEDFATYYCQQYNSYPLTFGQGTKLEIK
notes: One of the 9 huJ591 versions; Human IgG1 frameworks
Human PSMA antigen [1]
  Kd: 3.54 nM
  fold-change KD relative to chimeric: 17.2 fold
  koff: 0.000176 s⁻¹
  kon: 49700 M⁻¹ s⁻¹

B2: huJ591 (J591_VH-1 + J591_VL-1) (antibody, human IgG1, V domains shown)
VH: QVQLVQSGAEVKKPGASVKVSCKASGYTFTEYTMHWVRQAPGQGLEWMGNINPNNGGTTYAQKFQGRVTMTRDKSISTAYMELSRLRSDDTAVYYCAAGWNFDYWGQGTLVTVSS
VL: DIQLTQSPSFLSASVGDRVTITCRASQDVGTALDWYQQKPGKAPKLLIYWASTLHSGVPSRFSGSGSGTEFTLTISSLQPEDFATYYCQQYNSYPLTFGQGTKLEIK
notes: One of the 9 huJ591 versions made from three heavy and three light chain designs; Human IgG1 frameworks, expressed in CHO cells
Human PSMA antigen [1]
  Kd: 3.32 nM
  fold-change KD relative to chimeric: 16.1 fold
  koff: 0.000228 s⁻¹
  kon: 68600 M⁻¹ s⁻¹

B3: huJ591 (J591_VH-1 + J591_VL-2) (antibody, human IgG1, V domains shown)
VH: QVQLVQSGAEVKKPGASVKVSCKASGYTFTEYTMHWVRQAPGQGLEWMGNINPNNGGTTYAQKFQGRVTMTRDKSISTAYMELSRLRSDDTAVYYCAAGWNFDYWGQGTLVTVSS
VL: DIQLTQSPSFLSASVGDRVTITCRASQDVGTALDWYQQKPGKAPKLLIYWASTRHSGVPSRFSGSGSGTEFTLTISSLQPEDFATYYCQQYNSYPLTFGQGTKLEIK
notes: as for B1
Human PSMA antigen [1]
  Kd: 4.86 nM
  fold-change KD relative to chimeric: 23.6 fold
  koff: 0.000379 s⁻¹
  kon: 77900 M⁻¹ s⁻¹

B4: huJ591 (J591_VH-1 + J591_VL-3) (antibody, human IgG1, V domains shown)
VH: QVQLVQSGAEVKKPGASVKVSCKASGYTFTEYTMHWVRQAPGQGLEWMGNINPNNGGTTYAQKFQGRVTMTRDKSISTAYMELSRLRSDDTAVYYCAAGWNFDYWGQGTLVTVSS
VL: DIVMTQSPSSLSASVGDRVTITCRASQDVGTALDWYQQKPGKAPELLIYWASSLHSGVPSRFRGSGSGTDFTLTISSVQPEDFATYYCQQYNSYPLTFGQGTKLEIK
notes: as for B1
Human PSMA antigen [1]
  Kd: 3.55 nM
  fold-change KD relative to chimeric: 17.2 fold
  koff: 0.000285 s⁻¹
  kon: 80500 M⁻¹ s⁻¹

B5: huJ591 (J591_VH-2 + J591_VL-2) (antibody, human IgG1, V domains shown)
VH: QVQLVQSGAEVKKPGASVKVSCKASGYTFTEYTMHWVRQAPGQGLEWMGNINPNNGGTTYNQKFQGRVTMTVDKSISTAYMELSRLRSDDTAVYYCAAGWNFDYWGQGTLVTVSS
VL: DIQLTQSPSFLSASVGDRVTITCRASQDVGTALDWYQQKPGKAPKLLIYWASTRHSGVPSRFSGSGSGTEFTLTISSLQPEDFATYYCQQYNSYPLTFGQGTKLEIK
notes: as for B1
Human PSMA antigen [1]
  Kd: 4.81 nM
  fold-change KD relative to chimeric: 23.3 fold
  koff: 0.000286 s⁻¹
  kon: 59400 M⁻¹ s⁻¹

B6: huJ591 (J591_VH-2 + J591_VL-3) (antibody, human IgG1, V domains shown)
VH: QVQLVQSGAEVKKPGASVKVSCKASGYTFTEYTMHWVRQAPGQGLEWMGNINPNNGGTTYNQKFQGRVTMTVDKSISTAYMELSRLRSDDTAVYYCAAGWNFDYWGQGTLVTVSS
VL: DIVMTQSPSSLSASVGDRVTITCRASQDVGTALDWYQQKPGKAPELLIYWASSLHSGVPSRFRGSGSGTDFTLTISSVQPEDFATYYCQQYNSYPLTFGQGTKLEIK
notes: as for B1
Human PSMA antigen [1]
  Kd: 3.48 nM
  fold-change KD relative to chimeric: 16.9 fold
  koff: 0.000211 s⁻¹
  kon: 60600 M⁻¹ s⁻¹

B7: huJ591 (J591_VH-3 + J591_VL-2) (antibody, human IgG1, V domains shown)
VH: QVQLVQSGAEVKKPGASVKVSCKASGYTFTEYTMHWVRQAPGQRLEWMGNINPNNGGTTYSQKFQGRVTITVDKSASTAYMELSSLRSEDTAVYYCAAGWNFDYWGQGTLVTVSS
VL: DIQLTQSPSFLSASVGDRVTITCRASQDVGTALDWYQQKPGKAPKLLIYWASTRHSGVPSRFSGSGSGTEFTLTISSLQPEDFATYYCQQYNSYPLTFGQGTKLEIK
notes: as for B1
Human PSMA antigen [1]
  Kd: 2.54 nM
  fold-change KD relative to chimeric: 12.3 fold
  koff: 0.000146 s⁻¹
  kon: 57400 M⁻¹ s⁻¹

B8: huJ591 clone having combination of J591_VL-1 and J591_VH-3 (antibody, V domains shown)
VH: QVQLVQSGAEVKKPGASVKVSCKASGYTFTEYTMHWVRQAPGQRLEWMGNINPNNGGTTYSQKFQGRVTITVDKSASTAYMELSSLRSEDTAVYYCAAGWNFDYWGQGTLVTVSS
VL: DIQLTQSPSFLSASVGDRVTITCRASQDVGTALDWYQQKPGKAPKLLIYWASTLHSGVPSRFSGSGSGTEFTLTISSLQPEDFATYYCQQYNSYPLTFGQGTKLEIKR
notes: also called the select clone
Human PSMA antigen [1]
  Kd: 1.67 nM
  fold-change KD relative to chimeric: 8.1 fold
  koff: 9.69e-05 s⁻¹
  kon: 58200 M⁻¹ s⁻¹

B9: huJ591 (J591_VH-3 + J591_VL-3) (antibody, human IgG1, V domains shown)
VH: QVQLVQSGAEVKKPGASVKVSCKASGYTFTEYTMHWVRQAPGQRLEWMGNINPNNGGTTYSQKFQGRVTITVDKSASTAYMELSSLRSEDTAVYYCAAGWNFDYWGQGTLVTVSS
VL: DIVMTQSPSSLSASVGDRVTITCRASQDVGTALDWYQQKPGKAPELLIYWASSLHSGVPSRFRGSGSGTDFTLTISSVQPEDFATYYCQQYNSYPLTFGQGTKLEIK
notes: as for B1
Human PSMA antigen [1]
  Kd: 11.9 nM
  fold-change KD relative to chimeric: 57.8 fold
  koff: 0.00057 s⁻¹
  kon: 47900 M⁻¹ s⁻¹

B10: murine J591 (antibody, V domains shown)
VH: EVQLQQSGPELVKPGTSVRISCKTSGYTFTEYTIHWVKQSHGKSLEWIGNINPNNGGTTYNQKFEDKATLTVDKSSSTAYMELRSLTSEDSAVYYCAAGWNFDYWGQGTTLTVSS
VL: DIVMTQSHKFMSTSVGDRVSIICKASQDVGTAVDWYQQKPGQSPKLLIYWASTRHTGVPDRFTGSGSGTDFTLTITNVQSEDLADYFCQQYNSYPLTFGAGTMLDLKR
notes: also called original mouse antibody J591; mouse J591
Human PSMA antigen [1]
  Kd: 6.39 nM
  fold-change KD relative to chimeric: 31 fold
  koff: 0.000113 s⁻¹
  kon: 17700 M⁻¹ s⁻¹

B11: humanized anti-PSMAxCD3 BsAb BC243 (H2L3) (bispecific antibody, human IgG1, kappa, N297A)
light: DIVMTQSPSSLSASVGDRVTITCRASQDVGTALDWYQQKPGKAPELLIYWASSLHSGVPSRFRGSGSGTDFTLTISSVQPEDFATYYCQQYNSYPLTFGQGTKLEIKRTVAAPSVFIFPPSDEQLKSGTASVVCLLNNFYPREAKVQWKVDNALQSGNSQESVTEQDSKDSTYSLSSTLTLSKADYEKHKVYACEVTHQGLSSPVTKSFNRGECTSGGGGSGGGGSGGGGSQVQLVQSGGGVVQPGRSLRLSCKASGYTFTRYTMHWVRQAPGKCLEWIGYINPSRGYTNYNQKFKDRFTISRDNSKNTAFLQMDSLRPEDTGVYFCARYYDDHYSLDYWGQGTPVTVSSGGGGSGGGGSGGGGSGGGGSGGGGSGGGGSDIQMTQSPSSLSASVGDRVTITCSASSSVSYMNWYQQTPGKAPKRWIYDTSKLASGVPSRFSGSGSGTDYTFTISSLQPEDIATYYCQQWSSNPFTFGCGTKLQITR
heavy: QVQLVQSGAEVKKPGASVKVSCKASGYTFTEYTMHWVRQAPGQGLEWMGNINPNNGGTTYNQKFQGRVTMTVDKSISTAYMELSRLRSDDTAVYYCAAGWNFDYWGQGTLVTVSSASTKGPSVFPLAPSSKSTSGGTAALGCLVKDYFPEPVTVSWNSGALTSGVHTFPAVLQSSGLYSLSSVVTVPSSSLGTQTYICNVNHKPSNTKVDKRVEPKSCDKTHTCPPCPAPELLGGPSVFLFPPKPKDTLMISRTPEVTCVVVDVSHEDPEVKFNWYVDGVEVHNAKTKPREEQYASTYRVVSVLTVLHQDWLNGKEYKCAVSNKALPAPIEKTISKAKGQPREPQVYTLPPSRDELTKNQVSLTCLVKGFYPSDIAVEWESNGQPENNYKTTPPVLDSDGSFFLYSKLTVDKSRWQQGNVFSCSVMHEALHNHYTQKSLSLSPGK
notes: IgG(L)-scFv format, J591_VL-3 + J591_VH-2
Human PSMA antigen [2]
  Kd: 1.6 nM
  koff: 0.000308 s⁻¹
  kon: 192000 M⁻¹ s⁻¹
  t ½: 37.5 min
Cynomolgus PSMA (ACRO)
  Kd: 3.58 nM
  koff: 0.000634 s⁻¹
  kon: 177000 M⁻¹ s⁻¹
  t ½: 18.2 min

B12: humanized anti-PSMAxCD3 BsAb BC244a (H2L1) (bispecific antibody, human IgG1, kappa, N297A)
light: DIQLTQSPSFLSASVGDRVTITCRASQDVGTALDWYQQKPGKAPKLLIYWASTLHSGVPSRFSGSGSGTEFTLTISSLQPEDFATYYCQQYNSYPLTFGQGTKLEIKRTVAAPSVFIFPPSDEQLKSGTASVVCLLNNFYPREAKVQWKVDNALQSGNSQESVTEQDSKDSTYSLSSTLTLSKADYEKHKVYACEVTHQGLSSPVTKSFNRGECTSGGGGSGGGGSGGGGSQVQLVQSGGGVVQPGRSLRLSCKASGYTFTRYTMHWVRQAPGKCLEWIGYINPSRGYTNYNQKFKDRFTISRDNSKNTAFLQMDSLRPEDTGVYFCARYYDDHYSLDYWGQGTPVTVSSGGGGSGGGGSGGGGSGGGGSGGGGSGGGGSDIQMTQSPSSLSASVGDRVTITCSASSSVSYMNWYQQTPGKAPKRWIYDTSKLASGVPSRFSGSGSGTDYTFTISSLQPEDIATYYCQQWSSNPFTFGCGTKLQITR
heavy: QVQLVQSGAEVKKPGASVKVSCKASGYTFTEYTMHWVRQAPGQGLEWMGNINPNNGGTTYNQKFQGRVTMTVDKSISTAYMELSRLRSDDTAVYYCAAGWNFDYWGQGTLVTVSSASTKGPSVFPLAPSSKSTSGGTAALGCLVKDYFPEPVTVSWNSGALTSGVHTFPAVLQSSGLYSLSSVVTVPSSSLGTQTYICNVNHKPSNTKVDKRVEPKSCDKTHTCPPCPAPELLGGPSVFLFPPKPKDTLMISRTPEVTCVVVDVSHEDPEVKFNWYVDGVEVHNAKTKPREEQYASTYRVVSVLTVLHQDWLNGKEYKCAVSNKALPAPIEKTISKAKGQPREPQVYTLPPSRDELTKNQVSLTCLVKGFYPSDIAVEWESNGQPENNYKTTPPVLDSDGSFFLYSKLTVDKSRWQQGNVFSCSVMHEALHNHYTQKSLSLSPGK
notes: IgG(L)-scFv format
Human PSMA antigen [2]
  Kd: 2.91 nM
  koff: 0.000444 s⁻¹
  kon: 152000 M⁻¹ s⁻¹
  t ½: 26 min
Cynomolgus PSMA (ACRO)
  Kd: 6.67 nM
  koff: 0.000781 s⁻¹
  kon: 117000 M⁻¹ s⁻¹
  t ½: 14.8 min

B13: humanized anti-PSMAxCD3 BsAb BC245 (H3L3) (bispecific antibody, human IgG1, kappa, N297A)
light: DIVMTQSPSSLSASVGDRVTITCRASQDVGTALDWYQQKPGKAPELLIYWASSLHSGVPSRFRGSGSGTDFTLTISSVQPEDFATYYCQQYNSYPLTFGQGTKLEIKRTVAAPSVFIFPPSDEQLKSGTASVVCLLNNFYPREAKVQWKVDNALQSGNSQESVTEQDSKDSTYSLSSTLTLSKADYEKHKVYACEVTHQGLSSPVTKSFNRGECTSGGGGSGGGGSGGGGSQVQLVQSGGGVVQPGRSLRLSCKASGYTFTRYTMHWVRQAPGKCLEWIGYINPSRGYTNYNQKFKDRFTISRDNSKNTAFLQMDSLRPEDTGVYFCARYYDDHYSLDYWGQGTPVTVSSGGGGSGGGGSGGGGSGGGGSGGGGSGGGGSDIQMTQSPSSLSASVGDRVTITCSASSSVSYMNWYQQTPGKAPKRWIYDTSKLASGVPSRFSGSGSGTDYTFTISSLQPEDIATYYCQQWSSNPFTFGCGTKLQITR
heavy: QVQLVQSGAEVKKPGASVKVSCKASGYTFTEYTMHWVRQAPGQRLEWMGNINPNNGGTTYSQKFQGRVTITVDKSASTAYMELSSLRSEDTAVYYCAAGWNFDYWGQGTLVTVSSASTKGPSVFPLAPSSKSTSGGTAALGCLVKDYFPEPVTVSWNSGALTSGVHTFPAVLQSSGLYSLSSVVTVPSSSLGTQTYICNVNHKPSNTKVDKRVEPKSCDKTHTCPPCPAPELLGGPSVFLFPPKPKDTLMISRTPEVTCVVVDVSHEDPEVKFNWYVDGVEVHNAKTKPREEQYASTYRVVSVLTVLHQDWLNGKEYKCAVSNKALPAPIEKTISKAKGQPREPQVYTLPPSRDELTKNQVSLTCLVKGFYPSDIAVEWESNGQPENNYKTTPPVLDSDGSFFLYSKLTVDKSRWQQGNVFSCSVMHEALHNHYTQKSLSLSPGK
notes: IgG(L)-scFv format, J591_VL-3 + J591_VH-3
Human PSMA antigen [2]
  Kd: 1.06 nM
  koff: 0.000159 s⁻¹
  kon: 150000 M⁻¹ s⁻¹
  t ½: 72.7 min
Cynomolgus PSMA (ACRO)
  Kd: 2.49 nM
  koff: 0.000324 s⁻¹
  kon: 130000 M⁻¹ s⁻¹
  t ½: 35.7 min

Reference: patent publication US20230374150A1 (Memorial Sloan Kettering, published 2023)
